Laboratory results reported in article PMC8139713.

Target: ACE2-Fc (soluble human ACE2 fused to human IgG Fc) (human) (UniProt Q9BYF1)
Assay: BLI

Chain of ACE2-Fc (soluble human ACE2 fused to human IgG Fc) (human) (Q9BYF1 18-738): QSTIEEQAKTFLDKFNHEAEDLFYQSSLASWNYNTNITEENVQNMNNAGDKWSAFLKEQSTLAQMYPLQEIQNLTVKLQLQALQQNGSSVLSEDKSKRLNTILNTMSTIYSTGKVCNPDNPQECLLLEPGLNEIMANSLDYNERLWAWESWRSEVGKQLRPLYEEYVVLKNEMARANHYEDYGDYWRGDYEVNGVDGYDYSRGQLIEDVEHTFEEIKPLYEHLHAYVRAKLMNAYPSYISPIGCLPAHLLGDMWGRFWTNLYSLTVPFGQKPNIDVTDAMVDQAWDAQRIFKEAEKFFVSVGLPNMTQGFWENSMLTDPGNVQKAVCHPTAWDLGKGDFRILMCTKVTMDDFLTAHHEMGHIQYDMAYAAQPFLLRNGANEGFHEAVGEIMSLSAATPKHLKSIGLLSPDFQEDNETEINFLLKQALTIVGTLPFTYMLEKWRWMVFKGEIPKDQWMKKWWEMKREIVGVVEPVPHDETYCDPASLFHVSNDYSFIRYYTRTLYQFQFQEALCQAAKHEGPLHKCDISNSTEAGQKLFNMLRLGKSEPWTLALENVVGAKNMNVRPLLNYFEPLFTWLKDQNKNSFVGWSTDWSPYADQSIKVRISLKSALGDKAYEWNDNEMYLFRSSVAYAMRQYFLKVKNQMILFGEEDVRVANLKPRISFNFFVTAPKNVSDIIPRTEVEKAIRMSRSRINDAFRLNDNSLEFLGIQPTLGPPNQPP

Substance: wild-type SARS-CoV-1 S-Trimer (from UniProt P59594 14-1193) (domain or fragment)
- Kd: 1.2 nM
